Assay results taken from patent US20240309109A1 (MorphoSys, published 2024).

What was measured:
[1] = biological target: T1, human CD38 Fc-fusion aa 45-300 (human, UniProt P28907 45-300); experiment: ELISA on CD38 Fc-fusion protein, IgG format
T1 construct: Expressed in HEK293 behind a human Vkappa leader, which is left out here; also called CD38-Fc fusion protein; CD38 Fc-Fusion protein

[2] = biological target: T2, human CD38 on cells (human, UniProt P28907 1-300); experiment: FACS Scatchard on RPMI8226 cells
T2 construct: The cell that carried CD38 is named under assay in each row; also called CD38 on Raji, RPMI8226, OPM2, CCRF-CEM, human erythrocytes, CD38 CHO-K1 transfectants

[3] = biological target: CD38 (antigen of the Bioveris affinity determination) (Homo sapiens (Human), UniProt P28907 45-300, limits assumed); experiment: Bioveris, Fab format
[4] = biological target: T1, human CD38 Fc-fusion aa 45-300; experiment: SPR (Biacore), Fab format

Binder	ELISA CD38 Fc-Fusion protein (% Reactivity of MOR03087) [1]	EC50 [2]	Kd [3]	Kd [4]
MOR06195 IgG (antibody, V domains shown, copies: 2 + 2) VH: QVQLVESGGGLVQPGGSLRLSCAASGFTFSSYYMNWVRQAPGKGLEWVSAISGNGGHTYYADSVKGRFTISRDNSKNTLYLQMNSLRAEDTAVYYCARDLPLVYTGFAYWGQGTLVTVSS VL: DIELTQPPSVSVAPGQTARISCSGDNLRHYYVYWYQQKPGQAPVLVIYGDSKRPSGIPERFSGSNSGNTATLTISGTQAEDEADYYCQTYTGGASLVFGGGTKLTVLG	155%	–	–	–
MOR06200 Fab (Fab, V domains shown, Fab format) VH: QVQLVESGGGLVQPGGSLRLSCAASGFTFSSYYMNWVRQAPGKGLEWVSAISNNGNVTYYADSVKGRFTISRDNSKNTLYLQMNSLRAEDTAVYYCARDLPLVYTGFAYWGQGTLVTVSS VL: DIELTQPPSVSVAPGQTARISCSGDNLRHYYVYWYQQKPGQAPVLVIYGDSKRPSGIPERFSGSNSGNTATLTISGTQAEDEADYYCQTYTGGASLVFGGGTKLTVL	–	5.02 nM	0.0599 nM	7.92 nM
MOR06201 Fab (Fab, V domains shown, Fab format) VH: QVQLVESGGGLVQPGGSLRLSCAASGFTFSSYYMNWVRQAPGKGLEWVSAISMHGDTTYYADSVKGRFTISRDNSKNTLYLQMNSLRAEDTAVYYCARDLPLVYTGFAYWGQGTLVTVSS VL: DIELTQPPSVSVAPGQTARISCSGDNLRHYYVYWYQQKPGQAPVLVIYGDSKRPSGIPERFSGSNSGNTATLTISGTQAEDEADYYCQTYTGGASLVFGGGTKLTVL	–	9 nM	0.0186 nM	6.81 nM
MOR06184 Fab (Fab, V domains shown, Fab format) VH: QVQLVESGGGLVQPGGSLRLSCAASGFTFSSYYMNWVRQAPGKGLEWVSAISHDGNVKYYADSVKGRFTISRDNSKNTLYLQMNSLRAEDTAVYYCARDLPLVYTGFAYWGQGTLVTVSS VL: DIELTQPPSVSVAPGQTARISCSGDNLRHYYVYWYQQKPGQAPVLVIYGDSKRPSGIPERFSGSNSGNTATLTISGTQAEDEADYYCQTYTGGASLVFGGGTKLTVL	–	4.01 nM	0.0662 nM	9.68 nM
MOR06187 Fab (Fab, V domains shown, Fab format) VH: QVQLVESGGGLVQPGGSLRLSCAASGFTFSSYYMNWVRQAPGKGLEWVSAISSNGDITYYADSVKGRFTISRDNSKNTLYLQMNSLRAEDTAVYYCARDLPLVYTGFAYWGQGTLVTVSS VL: DIELTQPPSVSVAPGQTARISCSGDNLRHYYVYWYQQKPGQAPVLVIYGDSKRPSGIPERFSGSNSGNTATLTISGTQAEDEADYYCQTYTGGASLVFGGGTKLTVL	–	16.9 nM	0.0454 nM	12.5 nM
MOR06188 Fab (Fab, V domains shown, Fab format) VH: QVQLVESGGGLVQPGGSLRLSCAASGFTFSSYYMNWVRQAPGKGLEWVSAISTNGWQTYYADSVKGRFTISRDNSKNTLYLQMNSLRAEDTAVYYCARDLPLVYTGFAYWGQGTLVTVSS VL: DIELTQPPSVSVAPGQTARISCSGDNLRHYYVYWYQQKPGQAPVLVIYGDSKRPSGIPERFSGSNSGNTATLTISGTQAEDEADYYCQTYTGGASLVFGGGTKLTVL	–	22.7 nM	0.0593 nM	3.96 nM
MOR06185 Fab (Fab, V domains shown, Fab format) VH: QVQLVESGGGLVQPGGSLRLSCAASGFTFSSYYMNWVRQAPGKGLEWVSAISMNGDYISYADSVKGRFTISRDNSKNTLYLQMNSLRAEDTAVYYCARDLPLVYTGFAYWGQGTLVTVSS VL: DIELTQPPSVSVAPGQTARISCSGDNLRHYYVYWYQQKPGQAPVLVIYGDSKRPSGIPERFSGSNSGNTATLTISGTQAEDEADYYCQTYTGGASLVFGGGTKLTVL	–	7.3 nM	0.0137 nM	4.39 nM
MOR06197 IgG (antibody, V domains shown, copies: 2 + 2) VH: QVQLVESGGGLVQPGGSLRLSCAASGFTFSSYYMNWVRQAPGKGLEWVSAISMDGVYKYYADSVKGRFTISRDNSKNTLYLQMNSLRAEDTAVYYCARDLPLVYTGFAYWGQGTLVTVSS VL: DIELTQPPSVSVAPGQTARISCSGDNLRHYYVYWYQQKPGQAPVLVIYGDSKRPSGIPERFSGSNSGNTATLTISGTQAEDEADYYCQTYTGGASLVFGGGTKLTVLG	138%	–	–	–
MOR06192 Fab (Fab, V domains shown, Fab format) VH: QVQLVESGGGLVQPGGSLRLSCAASGFTFSSYYMNWVRQAPGKGLEWVSVISPGGEAKSYADSVKGRFTISRDNSKNTLYLQMNSLRAEDTAVYYCARDLPLVYTGFAYWGQGTLVTVSS VL: DIELTQPPSVSVAPGQTARISCSGDNLRHYYVYWYQQKPGQAPVLVIYGDSKRPSGIPERFSGSNSGNTATLTISGTQAEDEADYYCQTYTGGASLVFGGGTKLTVL	–	7.07 nM	0.0747 nM	5.01 nM
MOR06189 Fab (Fab, V domains shown, Fab format) VH: QVQLVESGGGLVQPGGSLRLSCAASGFTFSSYYMNWVRQAPGKGLEWVSAINMIGNVTNYADSVKGRFTISRDNSKNTLYLQMNSLRAEDTAVYYCARDLPLVYTGFAYWGQGTLVTVSS VL: DIELTQPPSVSVAPGQTARISCSGDNLRHYYVYWYQQKPGQAPVLVIYGDSKRPSGIPERFSGSNSGNTATLTISGTQAEDEADYYCQTYTGGASLVFGGGTKLTVL	–	9.41 nM	0.0247 nM	4.95 nM
MOR06201 IgG (antibody, V domains shown, copies: 2 + 2) VH: QVQLVESGGGLVQPGGSLRLSCAASGFTFSSYYMNWVRQAPGKGLEWVSAISMHGDTTYYADSVKGRFTISRDNSKNTLYLQMNSLRAEDTAVYYCARDLPLVYTGFAYWGQGTLVTVSS VL: DIELTQPPSVSVAPGQTARISCSGDNLRHYYVYWYQQKPGQAPVLVIYGDSKRPSGIPERFSGSNSGNTATLTISGTQAEDEADYYCQTYTGGASLVFGGGTKLTVLG	137%	–	–	–
MOR06214 Fab (Fab, V domains shown, Fab format) VH: QVQLVESGGGLVQPGGSLRLSCAASGFTFSSYAMNWVRQAPGKGLEWVSNIQRVGSTYYADSVKGRFTISRDNSKNTLYLQMNSLRAEDTAVYYCAREDGSYMTDYFAYWGQGTLVTVSS VL: DIELTQPPSVSVAPGQTARISCSGDNIGHYYVSWYQQKPGQAPVLVIYSDSNRPSGIPERFSGSNSGNTATLTISGTQAEDEADYYCQSYNGTYVFGGGTKLTVL	–	5.32 nM	0.0936 nM	5.26 nM

Second part, the binder after the results:

ELISA CD38 Fc-Fusion protein (% Reactivity of MOR03087) [1]	EC50 [2]	Kd [3]	Kd [4]	Binder
–	11.7 nM	0.0488 nM	15.7 nM	MOR06190 Fab (Fab, V domains shown, Fab format) VH: QVQLVESGGGLVQPGGSLRLSCAASGFTFSSYYMNWVRQAPGKGLEWVSYINPNGMMTNYADSVKGRFTISRDNSKNTLYLQMNSLRAEDTAVYYCARDLPLVYTGFAYWGQGTLVTVSS VL: DIELTQPPSVSVAPGQTARISCSGDNLRHYYVYWYQQKPGQAPVLVIYGDSKRPSGIPERFSGSNSGNTATLTISGTQAEDEADYYCQTYTGGASLVFGGGTKLTVL
111%	–	–	–	MOR06192 IgG (antibody, V domains shown, copies: 2 + 2) VH: QVQLVESGGGLVQPGGSLRLSCAASGFTFSSYYMNWVRQAPGKGLEWVSVISPGGEAKSYADSVKGRFTISRDNSKNTLYLQMNSLRAEDTAVYYCARDLPLVYTGFAYWGQGTLVTVSS VL: DIELTQPPSVSVAPGQTARISCSGDNLRHYYVYWYQQKPGQAPVLVIYGDSKRPSGIPERFSGSNSGNTATLTISGTQAEDEADYYCQTYTGGASLVFGGGTKLTVLG
–	6.47 nM	0.00509 nM	4.62 nM	MOR06186 Fab (Fab, V domains shown, Fab format) VH: QVQLVESGGGLVQPGGSLRLSCAASGFTFSSYYMNWVRQAPGKGLEWVSAINLSGSAKYYADSVKGRFTISRDNSKNTLYLQMNSLRAEDTAVYYCARDLPLVYTGFAYWGQGTLVTVSS VL: DIELTQPPSVSVAPGQTARISCSGDNLRHYYVYWYQQKPGQAPVLVIYGDSKRPSGIPERFSGSNSGNTATLTISGTQAEDEADYYCQTYTGGASLVFGGGTKLTVL
–	28.1 nM	0.026 nM	13.5 nM	MOR06183 Fab (Fab, V domains shown, Fab format) VH: QVQLVESGGGLVQPGGSLRLSCAASGFTFSSYYMNWVRQAPGKGLEWVSGINMESTRIYYADSVKGRFTISRDNSKNTLYLQMNSLRAEDTAVYYCARDLPLVYTGFAYWGQGTLVTVSS VL: DIELTQPPSVSVAPGQTARISCSGDNLRHYYVYWYQQKPGQAPVLVIYGDSKRPSGIPERFSGSNSGNTATLTISGTQAEDEADYYCQTYTGGASLVFGGGTKLTVL
–	5.6 nM	0.0557 nM	4.52 nM	MOR06195 Fab (Fab, V domains shown, Fab format) VH: QVQLVESGGGLVQPGGSLRLSCAASGFTFSSYYMNWVRQAPGKGLEWVSAISGNGGHTYYADSVKGRFTISRDNSKNTLYLQMNSLRAEDTAVYYCARDLPLVYTGFAYWGQGTLVTVSS VL: DIELTQPPSVSVAPGQTARISCSGDNLRHYYVYWYQQKPGQAPVLVIYGDSKRPSGIPERFSGSNSGNTATLTISGTQAEDEADYYCQTYTGGASLVFGGGTKLTVL
–	6.92 nM	0.0127 nM	4.81 nM	MOR06197 Fab (Fab, V domains shown, Fab format) VH: QVQLVESGGGLVQPGGSLRLSCAASGFTFSSYYMNWVRQAPGKGLEWVSAISMDGVYKYYADSVKGRFTISRDNSKNTLYLQMNSLRAEDTAVYYCARDLPLVYTGFAYWGQGTLVTVSS VL: DIELTQPPSVSVAPGQTARISCSGDNLRHYYVYWYQQKPGQAPVLVIYGDSKRPSGIPERFSGSNSGNTATLTISGTQAEDEADYYCQTYTGGASLVFGGGTKLTVL
–	6.36 nM	0.0585 nM	22.7 nM	MOR06204 Fab (Fab, V domains shown, Fab format) VH: QVQLVESGGGLVQPGGSLRLSCAASGFTFSSYAMNWVRQAPGKGLEWVSHIRKKNTSYTTEYAASVKGRFTISRDNSKNTLYLQMNSLRAEDTAVYYCAREDGSYMTDYFAYWGQGTLVTVSS VL: DIELTQPPSVSVAPGQTARISCSGDNIGHYYVSWYQQKPGQAPVLVIYSDSNRPSGIPERFSGSNSGNTATLTISGTQAEDEADYYCQSYNGTYVFGGGTKLTVL
